# Publication PMC7781312
# Molecular target: prefusion-stabilized MERS-CoV S ectodomain trimer (MERS-CoV 2P S) (MERS-CoV) (UniProt K9N5Q8)
# Assay: cryo-EM structure
# Sequence of prefusion-stabilized MERS-CoV S ectodomain trimer (MERS-CoV 2P S) (K9N5Q8 18-1296): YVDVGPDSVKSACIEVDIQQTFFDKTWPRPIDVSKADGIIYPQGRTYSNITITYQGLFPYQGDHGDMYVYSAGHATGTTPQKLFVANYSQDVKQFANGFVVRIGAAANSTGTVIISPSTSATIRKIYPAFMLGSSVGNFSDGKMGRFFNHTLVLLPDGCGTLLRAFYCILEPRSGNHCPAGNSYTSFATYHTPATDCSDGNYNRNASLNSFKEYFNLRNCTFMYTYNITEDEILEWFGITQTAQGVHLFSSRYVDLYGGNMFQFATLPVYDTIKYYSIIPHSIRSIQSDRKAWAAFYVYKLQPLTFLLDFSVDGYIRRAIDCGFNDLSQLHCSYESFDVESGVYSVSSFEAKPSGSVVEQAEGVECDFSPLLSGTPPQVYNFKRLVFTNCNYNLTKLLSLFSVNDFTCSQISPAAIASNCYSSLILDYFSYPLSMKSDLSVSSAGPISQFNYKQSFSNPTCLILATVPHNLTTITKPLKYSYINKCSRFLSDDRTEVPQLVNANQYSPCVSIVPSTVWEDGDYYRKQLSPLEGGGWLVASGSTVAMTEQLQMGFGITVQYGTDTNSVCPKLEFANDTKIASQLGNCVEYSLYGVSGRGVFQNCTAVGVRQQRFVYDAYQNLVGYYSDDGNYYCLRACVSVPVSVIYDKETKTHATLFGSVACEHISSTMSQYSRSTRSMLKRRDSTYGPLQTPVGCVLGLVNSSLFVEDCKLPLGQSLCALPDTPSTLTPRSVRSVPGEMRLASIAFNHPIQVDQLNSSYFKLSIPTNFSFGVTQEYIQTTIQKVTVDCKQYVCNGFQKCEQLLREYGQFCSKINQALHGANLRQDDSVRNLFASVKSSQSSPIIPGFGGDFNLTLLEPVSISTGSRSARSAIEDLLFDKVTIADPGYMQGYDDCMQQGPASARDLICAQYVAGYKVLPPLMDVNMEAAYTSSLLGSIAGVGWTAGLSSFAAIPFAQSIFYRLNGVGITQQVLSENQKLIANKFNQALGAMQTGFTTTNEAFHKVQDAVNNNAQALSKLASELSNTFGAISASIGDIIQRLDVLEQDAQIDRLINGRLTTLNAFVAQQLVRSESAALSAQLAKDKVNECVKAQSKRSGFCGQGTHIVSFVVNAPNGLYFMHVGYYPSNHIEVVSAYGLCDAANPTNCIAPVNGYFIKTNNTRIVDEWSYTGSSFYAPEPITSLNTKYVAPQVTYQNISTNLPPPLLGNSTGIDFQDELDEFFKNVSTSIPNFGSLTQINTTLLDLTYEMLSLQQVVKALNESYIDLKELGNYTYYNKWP
substance,measurement,value
prefusion-stabilized MERS-CoV S ectodomain trimer (MERS-CoV 2P S) (from UniProt K9N5Q8 18-1296) (domain or fragment),stoichiometry N,3
